Measurements from patent US20250289893A1 (OXFORD UNIVERSITY INNOVATION, published 2025).

What was measured:
[1] = target: T1, human CD1a expressed on cells (human, UniProt P06126 17-327; P61769 21-119); experiment: flow cytometry of ear skin cells of CD1a transgenic mice given antibody 116 100 µg i.p. on days 0, 2, 4 (CD1a : OX116), stained with HI149 on day 5; the cloud lies on the lower edge of the gate; no percent sign printed
T1 construct: also called HEK - CD1a; C1R - CD1a

[2] = target: T1, human CD1a expressed on cells; experiment: flow cytometry of ear skin cells of CD1a transgenic mice given isotype control (CD1a : iso), stained with HI149; gated population not named on the sheet; no percent sign printed
[3] = target: T1, human CD1a expressed on cells; experiment: flow cytometry of ear skin cells of CD1a transgenic mice given isotype control (CD1a : iso), stained with SK9; gated population not named on the sheet; no percent sign printed
[4] = target: T1, human CD1a expressed on cells; experiment: flow cytometry of ear skin cells of CD1a transgenic mice given antibody 116 100 µg i.p. on days 0, 2, 4 (CD1a : OX116), stained with SK9 on day 5; no percent sign printed
[5] = target: Chinese variant CD1a protein (human) (UniProt P06126); experiment: ELISA, 0.01 µg/ml antibody
[6] = target: T2, human CD1a protein (pool B) (human, UniProt P06126 18-295, limits assumed); experiment: ELISA, 10 µg/ml antibody
T2 construct: Recombinant protein of the ELISA (coated) and the Biacore T200 titration; whole entry named; also called human CD1a pool B; full length CD1a

[7] = target: chimeric CD1a pool B protein [human CD1a lipid binding domain, mouse CD1d Ig domain] (human; mouse) (UniProt P06126); experiment: ELISA, 10 µg/ml antibody
[8] = target: Chinese variant CD1a protein (human) (UniProt P06126); experiment: ELISA, 10 µg/ml antibody
[9] = target: chimeric CD1a pool B protein [human CD1a lipid binding domain, mouse CD1d Ig domain] (human; mouse) (UniProt P06126); experiment: ELISA, 100 µg/ml antibody
[10] = target: T2, human CD1a protein (pool B); experiment: ELISA, 100 µg/ml antibody
[11] = target: T2, human CD1a protein (pool B); experiment: ELISA, 0.316 µg/ml antibody
[12] = target: T2, human CD1a protein (pool B); experiment: ELISA, 1 µg/ml antibody
[13] = target: T2, human CD1a protein (pool B); experiment: ELISA, 0.0316 µg/ml antibody
[14] = target: chimeric CD1a pool B protein [human CD1a lipid binding domain, mouse CD1d Ig domain] (human; mouse) (UniProt P06126); experiment: ELISA, 0.0316 µg/ml antibody
[15] = target: T2, human CD1a protein (pool B); experiment: ELISA, 0.1 µg/ml antibody
[16] = target: chimeric CD1a pool B protein [human CD1a lipid binding domain, mouse CD1d Ig domain] (human; mouse) (UniProt P06126); experiment: ELISA, 0.316 µg/ml antibody
[17] = target: T3, Cynomolgus monkey CD1a protein (Cynomolgus monkey); experiment: ELISA, 0.01 µg/ml antibody
T3 chain: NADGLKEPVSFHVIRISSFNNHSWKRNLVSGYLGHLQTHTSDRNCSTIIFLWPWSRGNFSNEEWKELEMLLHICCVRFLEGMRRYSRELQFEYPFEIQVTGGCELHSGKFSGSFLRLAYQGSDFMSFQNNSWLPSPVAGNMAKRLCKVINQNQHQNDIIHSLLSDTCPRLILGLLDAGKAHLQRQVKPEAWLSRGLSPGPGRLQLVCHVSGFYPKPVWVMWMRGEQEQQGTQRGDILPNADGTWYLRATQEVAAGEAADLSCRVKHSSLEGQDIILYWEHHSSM

[18] = target: T3, Cynomolgus monkey CD1a protein; experiment: ELISA, 1 µg/ml antibody
[19] = target: chimeric CD1a pool B protein [human CD1a lipid binding domain, mouse CD1d Ig domain] (human; mouse) (UniProt P06126); experiment: ELISA, 1 µg/ml antibody
[20] = target: Chinese variant CD1a protein (human) (UniProt P06126); experiment: ELISA, 1 µg/ml antibody
[21] = target: chimeric CD1a pool B protein [human CD1a lipid binding domain, mouse CD1d Ig domain] (human; mouse) (UniProt P06126); experiment: ELISA, 31.6 µg/ml antibody
[22] = target: T2, human CD1a protein (pool B); experiment: ELISA, 31.6 µg/ml antibody
[23] = target: chimeric CD1a pool B protein [human CD1a lipid binding domain, mouse CD1d Ig domain] (human; mouse) (UniProt P06126); experiment: ELISA, 3.16 µg/ml antibody
[24] = target: T2, human CD1a protein (pool B); experiment: ELISA, 3.16 µg/ml antibody
[25] = target: T3, Cynomolgus monkey CD1a protein; experiment: ELISA, 0.1 µg/ml antibody
[26] = target: T3, Cynomolgus monkey CD1a protein; experiment: ELISA, 10 µg/ml antibody
[27] = target: chimeric CD1a pool B protein [human CD1a lipid binding domain, mouse CD1d Ig domain] (human; mouse) (UniProt P06126); experiment: ELISA, 0.1 µg/ml antibody
[28] = target: Chinese variant CD1a protein (human) (UniProt P06126); experiment: ELISA, 0.1 µg/ml antibody
[29] = target: T2, human CD1a protein (pool B); experiment: Biacore, column KD1 of the heterogeneous ligand model; no unit on the sheet or in the legend, M taken from Table 10 of the same Biacore method
[30] = target: T2, human CD1a protein (pool B); experiment: Biacore, column KD2 of the heterogeneous ligand model; no unit on the sheet or in the legend, M taken from Table 10 of the same Biacore method
[31] = target: Chinese variant CD1a protein (human) (UniProt P06126); experiment: ELISA on coated minor CD1A variant protein; antibody concentration not given
[32] = target: chimeric CD1a pool B protein [human CD1a lipid binding domain, mouse CD1d Ig domain] (human; mouse) (UniProt P06126); experiment: ELISA on chimeric CD1a (human alpha 1 and alpha 2 domains, murine CD1d alpha 3 domain), size exclusion pool B; antibody concentration not given
[33] = target: T4, Human CD1a/β2m heterodimer (soluble, de-glycosylated) (human, UniProt P61769 21-119); experiment: SPR, OX116-scFv immobilised, CD1a-SM24:1 (sphingomyelin) injected up to 1000 nM; 1:1 specific binding fit; row printed as Kd, unit nM from the legend paragraph 90
T4 construct: Expressed in HEK293S cells with fos-jun zippers, BirA tag and His-tag, which were cleaved off with thrombin; deglycosylated with EndoH; Carries endogenous lipids or a loaded lipid (named under assay); also called CD1a-endo; CD1a-sphingomyelin

[34] = target: T4, Human CD1a/β2m heterodimer (soluble, …); experiment: SPR, OX116-scFv immobilised, CD1a-LPC (lysophosphatidylcholine) injected up to 1000 nM; 1:1 specific binding fit; row printed as Kd, unit nM from the legend paragraph 90
[35] = target: T4, Human CD1a/β2m heterodimer (soluble, …); experiment: SPR, OX116-scFv immobilised on streptavidin chip, CD1a-endo (endogenous lipids) injected up to 1000 nM; 1:1 specific binding fit of response against concentration; row printed as Kd, unit nM from the legend paragraph 90
[36] = target: T4, Human CD1a/β2m heterodimer (soluble, …); experiment: SPR, OX116-scFv immobilised, CD1a-GD3 (GD3 ganglioside) injected up to 1000 nM; 1:1 specific binding fit; row printed as Kd, unit nM from the legend paragraph 90
[37] = target: T4, Human CD1a/β2m heterodimer (soluble, …); experiment: SPR, OX16-scFv immobilised, CD1a-LPC (lysophosphatidylcholine) injected up to 1000 nM; 1:1 specific binding fit; row printed as Kd, unit nM from the legend paragraph 90
[38] = target: T4, Human CD1a/β2m heterodimer (soluble, …); experiment: SPR, OX16-scFv immobilised on streptavidin chip, CD1a-endo (endogenous lipids) injected up to 1000 nM; 1:1 specific binding fit of response against concentration; row printed as Kd, unit nM from the legend paragraph 90
[39] = target: T4, Human CD1a/β2m heterodimer (soluble, …); experiment: SPR, OX16-scFv immobilised, CD1a-SM24:1 (sphingomyelin) injected up to 1000 nM; 1:1 specific binding fit; row printed as Kd, unit nM from the legend paragraph 90
[40] = target: T4, Human CD1a/β2m heterodimer (soluble, …); experiment: SPR, OX16-scFv immobilised, CD1a-GD3 (GD3 ganglioside) injected up to 1000 nM; 1:1 specific binding fit; row printed as Kd, unit nM from the legend paragraph 90

Chain of Chinese variant CD1a protein (human) (P06126 18-295, stated change not applied): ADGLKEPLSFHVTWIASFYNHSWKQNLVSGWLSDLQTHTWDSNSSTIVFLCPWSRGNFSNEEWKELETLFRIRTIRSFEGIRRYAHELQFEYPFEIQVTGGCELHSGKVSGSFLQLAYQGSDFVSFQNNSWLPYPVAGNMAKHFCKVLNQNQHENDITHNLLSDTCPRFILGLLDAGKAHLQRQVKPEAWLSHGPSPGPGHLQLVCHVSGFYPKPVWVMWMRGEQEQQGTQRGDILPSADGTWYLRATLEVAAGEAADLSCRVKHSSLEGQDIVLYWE
T2 sequence (P06126 18-295 limits assumed): as the sequence (P06126 18-295, stated change not applied) above
Chain of chimeric CD1a pool B protein [human CD1a lipid binding domain, mouse CD1d Ig domain] (human; mouse) (P06126 other isoform, or with tags, fused parts or gaps mutant limits assumed): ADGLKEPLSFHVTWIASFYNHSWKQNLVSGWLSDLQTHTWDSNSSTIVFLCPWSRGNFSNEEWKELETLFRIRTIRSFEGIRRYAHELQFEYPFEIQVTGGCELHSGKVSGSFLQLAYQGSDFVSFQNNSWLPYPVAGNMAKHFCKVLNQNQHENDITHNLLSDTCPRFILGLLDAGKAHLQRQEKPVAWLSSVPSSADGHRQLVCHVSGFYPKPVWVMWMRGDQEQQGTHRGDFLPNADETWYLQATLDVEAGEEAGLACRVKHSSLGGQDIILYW

## HI149 (antibody)
[1]
  CD1a+ (gate frequency): 46.6%
[2]
  CD1a+ (gate frequency): 82.2%

## SK9 (antibody)
[3]
  CD1a+ (gate frequency): 84.9%
[4]
  CD1a+ (gate frequency): 87.4%

## control rabbit IgG antibody
[5]
  Optical Density (OD): 0.08 OD
[6]
  Optical Density (OD): 0.07 OD
[7]
  Optical Density (OD): 0.08 OD
[8]
  Optical Density (OD): 0.14 OD
[9]
  Optical Density (OD): 0.08 OD
[10]
  Optical Density (OD): 0.07 OD
[11]
  Optical Density (OD): 0.07 OD
[12]
  Optical Density (OD): 0.07 OD
[13]
  Optical Density (OD): 0.06 OD
[14]
  Optical Density (OD): 0.09 OD
[15]
  Optical Density (OD): 0.06 OD
[16]
  Optical Density (OD): 0.09 OD
[17]
  Optical Density (OD): 0.06 OD
[18]
  Optical Density (OD): 0.07 OD
[19]
  Optical Density (OD): 0.09 OD
[20]
  Optical Density (OD): 0.08 OD
[21]
  Optical Density (OD): 0.08 OD
[22]
  Optical Density (OD): 0.06 OD
[23]
  Optical Density (OD): 0.1 OD
[24]
  Optical Density (OD): 0.06 OD
[25]
  Optical Density (OD): 0.07 OD
[26]
  Optical Density (OD): 0.09 OD
[27]
  Optical Density (OD): 0.08 OD
[28]
  Optical Density (OD): 0.08 OD

B1: OX25 (antibody, V domains shown)
VH: QVQLQQSGPGLVAPSQSLFITCTVSGFSLTTYEINWVRQPPGKGLEWLGVIWTGGSTNYNSALISRLSISKDNSKSLVFLKMNSLQTDDTAIYYCVRTLPYYYAMDYWGQGTSVTVSS
VL: EIVLTQSPALMAASPGEKVTITCSVSSSISSSNLHWYQQKSGTSPKPWIYGTSNLASGVPVRFSGSGSGTSYSLTISSMEAEDAATYYCQQWSSYPPTFGSGTKLEIK
notes: also called antibody 25; Ab 25
[29]
  Kd: 0.015 µM
[30]
  Kd: 0.0021 µM
[31]
  optical density (ELISA): 0.736
[32]
  optical density (ELISA): 0.11

B2: OX116 scFv (scFv)
scFv: DAQSVEESGGRLVTPGTPLTLTCTVSGFSLSNYAMSWVRQAPGKGLEWIGIIYTTGFTYYASWVKGRFTISKTSTTVDLKITSPTTEDTATYFCARGLATYVSPPTRLDLWGQGTLVTVSSGGGGSGGGGSGGGGSAQVLTQTPSPVSAAVGGTVTINCQASQSIYNSKNLAWYQQKPGQPPKLLIYSASTLASGVPSRFKGSGSGTQFTLTISDLESDDAATYYCQGEFSCSSVDCATFGGGTEVVVKSGLEVLFQGPGSGLNDIFEAQKIEWHEHHHHHH
notes: SPR: biotinylated on the C-terminal tag and coupled to streptavidin; Crystals: tags cleaved off with 3C protease; also called OX116 Ab fragment
[33]
  Kd: 0.529 µM
[34]
  Kd: 1.52 µM
[35]
  Kd: 0.483 µM
[36]
  Kd: 0.329 µM

B3: OX16 scFv (scFv)
scFv: DAEVQLVESGGGLVKPGGSLKLSCAASGFTFSNYAMSWVRQTPEKRLEWVAAINSNGGSAYYPDTVKDRFTISRDNAKNTLYLQMSSLRSEDTALYYCARRFYYDYGWFAYWGQGTLVTVSSGGGGSGGGGSGGGGSDIVLTQSPASLSASVGETVTITCRASENIDSYLAWYQQKQGKSPQLLVYAATLLADGVPSRFSGSGSGTQYSLKINSLQSEDVARYYCQHYYSSPWTFGGGTKLEIKSGLEVLFQGPGSGLNDIFEAQKIEWHEHHHHHH
notes: SPR: biotinylated on the C-terminal tag and coupled to streptavidin; Crystals: BirA and His-tag cleaved off with 3C protease; also called 16 ScFv full; single chain variable construct of OX16
[37]
  Kd: 1.01 µM
[38]
  Kd: 0.476 µM
[39]
  Kd: 0.86 µM
[40]
  Kd: 1.27 µM
